Test results from patent publication US20130157934A1 (INDIANA UNIVERSITY RESEARCH AND TECHNOLOGY, published 2013).
Read-outs that look alike come from different tables or passages of the source. Starred links: 1 amine or outer side, 2 acyl side, 3 side chain; linkers in the order of their positions; H or OH if unused. Positions of bridges follow the written chain, without caps; N, C: chain ends. Non-standard residues stand in square brackets, D forms with d. Groups on a side chain read outwards from the residue. No end group written: not given here. estradiol (3-ether, amide-linked) = estradiol attached through its 3-position ether, via an amide; PhLac = O=C(O)[C@@H](O)Cc1ccccc1; Suc = O=C(CCC(=O)[*:2])[*:1]; Aib = CC(C)(N)C(=O)O

Key:
Test in all cases: cell-based or functional assay
GLP-1 receptor [1] = biological target: T1, GLP-1 receptor (UniProt P43220 24-463, limits assumed)
Target sequence in this assay (P43220 24-463 limits assumed): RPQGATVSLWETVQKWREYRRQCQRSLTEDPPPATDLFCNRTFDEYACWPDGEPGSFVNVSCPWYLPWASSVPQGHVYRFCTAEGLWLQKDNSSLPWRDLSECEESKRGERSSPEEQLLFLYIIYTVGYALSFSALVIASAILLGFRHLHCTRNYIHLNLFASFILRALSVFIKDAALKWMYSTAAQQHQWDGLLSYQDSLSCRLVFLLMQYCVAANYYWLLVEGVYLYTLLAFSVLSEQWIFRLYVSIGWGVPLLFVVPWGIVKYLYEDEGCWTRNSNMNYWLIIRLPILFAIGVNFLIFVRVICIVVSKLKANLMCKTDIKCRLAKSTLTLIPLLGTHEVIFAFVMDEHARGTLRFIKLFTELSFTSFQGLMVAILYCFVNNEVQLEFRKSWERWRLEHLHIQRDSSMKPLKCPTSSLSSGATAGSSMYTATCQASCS

glucagon receptor [2] = biological target: T2, glucagon receptor (UniProt P47871 26-477, limits assumed)
glucagon receptor [3] = biological target: T2, glucagon receptor; remark: listed apart in the source
glucagon receptor [4] = biological target: T2, glucagon receptor; remark: listed apart in the source
GLP-1 receptor [5] = biological target: T1, GLP-1 receptor; remark: listed apart in the source
glucagon receptor [6] = biological target: T2, glucagon receptor; remark: listed apart in the source
GLP-1 receptor [7] = biological target: T1, GLP-1 receptor; remark: listed apart in the source
GLP-1 receptor [8] = biological target: T1, GLP-1 receptor; remark: listed apart in the source
GLP-1 receptor [9] = biological target: T1, GLP-1 receptor; remark: listed apart in the source
Target sequence in this assay (P43220 24-463 limits assumed): as above

GLP-1 receptor [10] = biological target: T1, GLP-1 receptor; remark: listed apart in the source
Target sequence in this assay (P43220 24-463 limits assumed): as above

glucagon receptor [11] = biological target: T2, glucagon receptor; remark: listed apart in the source
glucagon receptor [12] = biological target: glucagon receptor (UniProt P47871)
GLP-1 receptor [13] = biological target: GLP-1 receptor (UniProt P43220)
glucagon receptor [14] = biological target: glucagon receptor (UniProt P47871); remark: listed apart in the source

T2 sequence (P47871 26-477 limits assumed): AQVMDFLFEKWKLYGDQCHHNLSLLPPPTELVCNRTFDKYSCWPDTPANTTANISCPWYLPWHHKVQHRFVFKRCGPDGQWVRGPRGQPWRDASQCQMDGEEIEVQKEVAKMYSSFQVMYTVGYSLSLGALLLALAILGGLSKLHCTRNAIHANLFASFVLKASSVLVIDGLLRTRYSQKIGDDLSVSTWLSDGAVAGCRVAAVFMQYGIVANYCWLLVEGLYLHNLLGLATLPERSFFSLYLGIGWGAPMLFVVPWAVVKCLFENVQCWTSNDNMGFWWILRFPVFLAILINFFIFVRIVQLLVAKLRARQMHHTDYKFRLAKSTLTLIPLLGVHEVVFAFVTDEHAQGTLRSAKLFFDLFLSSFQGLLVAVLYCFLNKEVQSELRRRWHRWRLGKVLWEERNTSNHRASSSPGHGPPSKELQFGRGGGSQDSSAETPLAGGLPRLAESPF
glucagon receptor (UniProt P47871), sequence (P47871 26-477 limits assumed): as above
GLP-1 receptor (UniProt P43220), sequence (P43220 24-463 limits assumed): as the sequence (P43220 24-463 limits assumed) above

B1: [PLA6, D9, E16, K20E24(Lactam), D28]G(6-29) (peptide)
peptide: [PhLac]TSDYSKYLDERRAKDFVEWLMDT-NH2
modifications: lactam 15-19; N-terminus assumed
SMILES: CSCC[C@H](NC(=O)[C@H](CC(C)C)NC(=O)[C@H](Cc1c[nH]c2ccccc12)NC(=O)[C@@H]1CCC(=O)NCCCC[C@H](NC(=O)[C@H](C)NC(=O)[C@H](CCCNC(=N)N)NC(=O)[C@H](CCCNC(=N)N)NC(=O)[C@H](CCC(=O)O)NC(=O)[C@H](CC(=O)O)NC(=O)[C@H](CC(C)C)NC(=O)[C@H](Cc2ccc(O)cc2)NC(=O)[C@H](CCCCN)NC(=O)[C@H](CO)NC(=O)[C@H](Cc2ccc(O)cc2)NC(=O)[C@H](CC(=O)O)NC(=O)[C@H](CO)NC(=O)[C@@H](NC(=O)[C@@H](O)Cc2ccccc2)[C@@H](C)O)C(=O)N[C@@H](CC(=O)O)C(=O)N[C@@H](Cc2ccccc2)C(=O)N[C@@H](C(C)C)C(=O)N1)C(=O)N[C@@H](CC(=O)O)C(=O)N[C@H](C(N)=O)[C@@H](C)O
- GLP-1 EC50 (GLP-1 receptor [1]): 239 nM
- Glucagon IC50 (glucagon receptor [2]): 74 nM

B2: [PLA6, D9, E16, E24K28(lactam)]G(6~29) (peptide)
peptide: [PhLac]TSDYSKYLDERRAQDFVEWLMKT-NH2
modifications: lactam 19-23; N-terminus assumed
SMILES: CSCC[C@@H]1NC(=O)[C@H](CC(C)C)NC(=O)[C@H](Cc2c[nH]c3ccccc23)NC(=O)[C@@H](NC(=O)[C@@H](NC(=O)[C@H](Cc2ccccc2)NC(=O)[C@H](CC(=O)O)NC(=O)[C@H](CCC(N)=O)NC(=O)[C@H](C)NC(=O)[C@H](CCCNC(=N)N)NC(=O)[C@H](CCCNC(=N)N)NC(=O)[C@H](CCC(=O)O)NC(=O)[C@H](CC(=O)O)NC(=O)[C@H](CC(C)C)NC(=O)[C@H](Cc2ccc(O)cc2)NC(=O)[C@H](CCCCN)NC(=O)[C@H](CO)NC(=O)[C@H](Cc2ccc(O)cc2)NC(=O)[C@H](CC(=O)O)NC(=O)[C@H](CO)NC(=O)[C@@H](NC(=O)[C@@H](O)Cc2ccccc2)[C@@H](C)O)C(C)C)CCC(=O)NCCCC[C@@H](C(=O)N[C@H](C(N)=O)[C@@H](C)O)NC1=O
- GLP-1 EC50 (GLP-1 receptor [1]): 289 nM
- Glucagon IC50 (glucagon receptor [2]): 22 nM

Binder: FTSEYSKYLDERRAQDFVQWLMNTGPSSGAPPPS-NH2 [E9, K12, E16 glucagon(6-39) Cex peptide]
- Glucagon IC50 (glucagon receptor [3]): 762 nM
- Glu IC50 (glucagon receptor [4]): 762 nM

B3: [E9, E16K20(lactam), D28]G(4~29) (peptide)
peptide: GTFTSEYSKYLDERRAKDFVQWLMDT-NH2
modifications: lactam 13-17; N-terminus assumed
SMILES: CSCC[C@H](NC(=O)[C@H](CC(C)C)NC(=O)[C@H](Cc1c[nH]c2ccccc12)NC(=O)[C@H](CCC(N)=O)NC(=O)[C@@H](NC(=O)[C@H](Cc1ccccc1)NC(=O)[C@H](CC(=O)O)NC(=O)[C@@H]1CCCCNC(=O)CC[C@H](NC(=O)[C@H](CC(=O)O)NC(=O)[C@H](CC(C)C)NC(=O)[C@H](Cc2ccc(O)cc2)NC(=O)[C@H](CCCCN)NC(=O)[C@H](CO)NC(=O)[C@H](Cc2ccc(O)cc2)NC(=O)[C@H](CCC(=O)O)NC(=O)[C@H](CO)NC(=O)[C@@H](NC(=O)[C@H](Cc2ccccc2)NC(=O)[C@@H](NC(=O)CN)[C@@H](C)O)[C@@H](C)O)C(=O)N[C@@H](CCCNC(=N)N)C(=O)N[C@@H](CCCNC(=N)N)C(=O)N[C@@H](C)C(=O)N1)C(C)C)C(=O)N[C@@H](CC(=O)O)C(=O)N[C@H](C(N)=O)[C@@H](C)O
- GLP-1 EC50 (GLP-1 receptor [5]): 151 nM
- Glucagon IC50 (glucagon receptor [6]): 10 to 30 nM

B4: [A2E3, E16K20(Lactam), D28]G(1~29) (peptide)
peptide: HAEGTFTSEYSKYLDERRAKDFVQWLMDT-NH2
modifications: lactam 16-20; N-terminus assumed
SMILES: CSCC[C@H](NC(=O)[C@H](CC(C)C)NC(=O)[C@H](Cc1c[nH]c2ccccc12)NC(=O)[C@H](CCC(N)=O)NC(=O)[C@@H](NC(=O)[C@H](Cc1ccccc1)NC(=O)[C@H](CC(=O)O)NC(=O)[C@@H]1CCCCNC(=O)CC[C@H](NC(=O)[C@H](CC(=O)O)NC(=O)[C@H](CC(C)C)NC(=O)[C@H](Cc2ccc(O)cc2)NC(=O)[C@H](CCCCN)NC(=O)[C@H](CO)NC(=O)[C@H](Cc2ccc(O)cc2)NC(=O)[C@H](CCC(=O)O)NC(=O)[C@H](CO)NC(=O)[C@@H](NC(=O)[C@H](Cc2ccccc2)NC(=O)[C@@H](NC(=O)CNC(=O)[C@H](CCC(=O)O)NC(=O)[C@H](C)NC(=O)[C@@H](N)Cc2c[nH]cn2)[C@@H](C)O)[C@@H](C)O)C(=O)N[C@@H](CCCNC(=N)N)C(=O)N[C@@H](CCCNC(=N)N)C(=O)N[C@@H](C)C(=O)N1)C(C)C)C(=O)N[C@@H](CC(=O)O)C(=O)N[C@H](C(N)=O)[C@@H](C)O
- GLP-1 EC50 (GLP-1 receptor [5]): 0.2 nM
- Glucagon IC50 (glucagon receptor [6]): 130 nM

Binder: HSQGTFTSDYARYLDARRAREFIKWLVRGRG [ANK2 (Bayer peptide)]
- GLP-1 EC50 (GLP-1 receptor [5]): 0.28 nM

Binder: [PhLac]TSDYSKYLDERRAKDFVQWLMDT-NH2 (lactam 11-15) [[PLA6, D9, E16K20(lactam), D28]G(6-29)]
- Glucagon IC50 (glucagon receptor [6]): 10 to 30 nM
- GLP-1 EC50 (GLP-1 receptor [7]): 4 nM
- Glucagon IC50 (glucagon receptor [3]): 6 nM

B5: E9, K12E16(lactam) glucagon(6-39) Cex peptide (peptide)
peptide: FTSEYSKYLDERRAQDFVQWLMNTGPSSGAPPPS-NH2
modifications: lactam 7-11; N-terminus assumed
SMILES: CSCC[C@H](NC(=O)[C@H](CC(C)C)NC(=O)[C@H](Cc1c[nH]c2ccccc12)NC(=O)[C@H](CCC(N)=O)NC(=O)[C@@H](NC(=O)[C@H](Cc1ccccc1)NC(=O)[C@H](CC(=O)O)NC(=O)[C@H](CCC(N)=O)NC(=O)[C@H](C)NC(=O)[C@H](CCCNC(=N)N)NC(=O)[C@H](CCCNC(=N)N)NC(=O)[C@@H]1CCC(=O)NCCCC[C@H](NC(=O)[C@H](CO)NC(=O)[C@H](Cc2ccc(O)cc2)NC(=O)[C@H](CCC(=O)O)NC(=O)[C@H](CO)NC(=O)[C@@H](NC(=O)[C@@H](N)Cc2ccccc2)[C@@H](C)O)C(=O)N[C@@H](Cc2ccc(O)cc2)C(=O)N[C@@H](CC(C)C)C(=O)N[C@@H](CC(=O)O)C(=O)N1)C(C)C)C(=O)N[C@@H](CC(N)=O)C(=O)N[C@H](C(=O)NCC(=O)N1CCC[C@H]1C(=O)N[C@@H](CO)C(=O)N[C@@H](CO)C(=O)NCC(=O)N[C@@H](C)C(=O)N1CCC[C@H]1C(=O)N1CCC[C@H]1C(=O)N1CCC[C@H]1C(=O)N[C@@H](CO)C(N)=O)[C@@H](C)O
- GLP-1 EC50 (GLP-1 receptor [7]): 63 nM
- Glucagon IC50 (glucagon receptor [3]): 2010 nM
- GLP-1 EC50 (GLP-1 receptor [8]): 63 nM
- Glu IC50 (glucagon receptor [4]): 2010 nM

B6: E9, E16K20(lactam) glucagon(6-39) Cex peptide (peptide)
peptide: FTSEYSKYLDERRAKDFVQWLMNTGPSSGAPPPS-NH2
modifications: lactam 11-15; N-terminus assumed
SMILES: CSCC[C@H](NC(=O)[C@H](CC(C)C)NC(=O)[C@H](Cc1c[nH]c2ccccc12)NC(=O)[C@H](CCC(N)=O)NC(=O)[C@@H](NC(=O)[C@H](Cc1ccccc1)NC(=O)[C@H](CC(=O)O)NC(=O)[C@@H]1CCCCNC(=O)CC[C@H](NC(=O)[C@H](CC(=O)O)NC(=O)[C@H](CC(C)C)NC(=O)[C@H](Cc2ccc(O)cc2)NC(=O)[C@H](CCCCN)NC(=O)[C@H](CO)NC(=O)[C@H](Cc2ccc(O)cc2)NC(=O)[C@H](CCC(=O)O)NC(=O)[C@H](CO)NC(=O)[C@@H](NC(=O)[C@@H](N)Cc2ccccc2)[C@@H](C)O)C(=O)N[C@@H](CCCNC(=N)N)C(=O)N[C@@H](CCCNC(=N)N)C(=O)N[C@@H](C)C(=O)N1)C(C)C)C(=O)N[C@@H](CC(N)=O)C(=O)N[C@H](C(=O)NCC(=O)N1CCC[C@H]1C(=O)N[C@@H](CO)C(=O)N[C@@H](CO)C(=O)NCC(=O)N[C@@H](C)C(=O)N1CCC[C@H]1C(=O)N1CCC[C@H]1C(=O)N1CCC[C@H]1C(=O)N[C@@H](CO)C(N)=O)[C@@H](C)O
- GLP-1 EC50 (GLP-1 receptor [7]): 36 nM
- Glucagon IC50 (glucagon receptor [3]): 42 nM
- GLP-1 EC50 (GLP-1 receptor [8]): 36 nM
- Glu IC50 (glucagon receptor [4]): 42 nM

Binder: FTSDYSKYLDERRAQDFVQWLMNTGPSSGAPPPS-NH2 (lactam 7-11; not fully specified) [D9, K12E16(Lactam) glucagon(6-39) Cex peptide]
- GLP-1 EC50 (GLP-1 receptor [7]): 18 nM
- Glucagon IC50 (glucagon receptor [3]): 828 nM
- GLP-1 EC50 (GLP-1 receptor [8]): 119 nM
- Glu IC50 (glucagon receptor [4]): 828 nM

Binder: AEGTFTSEYSKYLDERRAKDFVQWLMDT-NH2 (lactam 15-19) [[A2E3, E16K20(Lactam), D28]G(2~29)]
- Glucagon IC50 (glucagon receptor [6]): 63 nM

Binder: [dA][Aib][dE]G[dT][dF][dT][dS][dD][dV][dS][dS][dY][dL][dE]G[dQ][dA][dA][dK][dE][dA][dI][dA][dW][dL][dV][dK]GG[dP][dS][dS]G[dA][dP][dP][dP][dS]K(estradiol (3-ether, amide-linked))-NH2 [Inactive GLP-1 (d-amino acid containing)/Estrogen(3-ether)]
- GLP-1 EC50 (cAMP induction, CRE-luciferase in HEK293 cells) (GLP-1 receptor [9]): 418 nM

Binder: [PhLac]TSDYSKYLDERRAQDFVQWLMDT-NH2 (lactam 7-11; not fully specified) [[PLA6, D9, K12E16(Lactam), D28]G(6-29)]
- GLP-1 EC50 (GLP-1 receptor [1]): 177 nM
- Glucagon IC50 (glucagon receptor [2]): 63 nM
- GLP-1 EC50 (GLP-1 receptor [10]): 21 nM
- Glucagon IC50 (glucagon receptor [11]): 13 nM

B7: [PLA6, E9, K12E16(Lactam)] glucagon(6-39) Cex peptide (peptide)
peptide: XTSEYSKYLDERRAQDFVQWLMNTGPSSGAPPPS
modifications: not fully specified; X1 = PLA (phenyl lactic acid in place of Phe 6 of glucagon); lactam bridge K12-E16 (glucagon numbering; residues 7 and 11 of this chain)
- Glu IC50 (glucagon receptor [12]): 72 nM
- GLP-1 EC50 (GLP-1 receptor [13]): 6 nM
- Glucagon IC50 (glucagon receptor [14]): 72 nM

Binder: [dA][Aib][dE]G[dT][dF][dT][dS][dD][dV][dS][dS][dY][dL][dE]G[dQ][dA][dA][dK][dE][dA][dI][dA][dW][dL][dV][dK]GG[dP][dS][dS]G[dA][dP][dP][dP][dS]K([Suc-estradiol])-NH2 [Inactive GLP-1 (d-amino acid containing)/Estrogen(3-ester)]
- GLP-1 EC50 (cAMP induction, CRE-luciferase in HEK293 cells) (GLP-1 receptor [9]): 562 nM
